B1: scFv; the commonest letter at each place (parent)
chain 1: EVKLDETGGGLVQPGRPMKLSCVASGFTFSDYWMNWVRQSPEKGLEWVAQIRNKPYNYETYYSDSVKGRFTISRDDSKSSVYLQMNNLRVEDMGIYYCTGSYYGMDYWGQGTSVTVS
chain 2: DVVMTQTPLSLPVSLGDQASISCRSSQSLVHSNGNTYLRWYLQKPGQSPKVLIYKVSNRFSGVPDRFSGSGSGTDFTLKISRVEAEDLGVYFCSQSTHVPWTFGGGTKLEIK

In the data set “fluorescein” the parent is B1. The data set is described as follows: Kd (Tite-Seq). To be noted: with fluorescein; format: scFv 4-4-20, heavy + light.
Variants of B1 are the subject of data set [1]. The experiment in a line: yeast surface expression (ratio to wild type); higher = more expressed. The note with it: format: scFv 4-4-20, heavy + light.

The record followed here is the FLAb antibody collection (doi:10.7554/elife.23156).

In general, Kd refers to the equilibrium constant for the complex coming apart.

For chain 1 S30P N35G, the Kd with fluorescein came out at 0.00468 µM. Besides, the yeast surface expression in data set [1] came to 1.19.

Take chain 1 F29Y Y32H: the Kd with fluorescein was found to be 0.205 µM. Further, in data set [1], the yeast surface expression was found to be 0.756.

With chain 1 Y102E, in the data set with fluorescein, the Kd was at least 10 µM. For the same variant, the yeast surface expression in data set [1] was 0.889.

Take chain 1 Y102N: in the data set with fluorescein, the Kd turned out to be 0.0175 µM. Besides, the yeast surface expression in data set [1] amounted to 1.04.

Consider chain 1 Y102R, for which, in the data set with fluorescein, the Kd stood at 0.0252 µM. For the same variant, in data set [1], the yeast surface expression is 1.06.

chain 1 S30G M34H: the Kd in the data set with fluorescein amounted to 5.66 µM. In addition, the yeast surface expression in data set [1] is 0.659.

Regarding chain 1 S30G M34R, in the data set with fluorescein, the Kd came to 0.00199 µM.

As to chain 1 D106Q W108G, in the data set with fluorescein, the Kd was at least 10 µM. Moreover, in data set [1], the yeast surface expression was found to be 0.384.

With chain 1 S30L N35T, in the data set with fluorescein, the Kd was at least 10 µM. Further, the yeast surface expression in data set [1] turned out to be 0.699.

Regarding chain 1 N35K V37S, the Kd with fluorescein is at least 10 µM. For the same variant, the yeast surface expression in data set [1] stood at 0.732.

In the case of chain 1 D31E M34N, the Kd in the data set with fluorescein is at least 10 µM. Further, the yeast surface expression in data set [1] is 0.61.

As to chain 1 M34W W36T, the Kd in the data set with fluorescein was at least 10 µM. In addition, in data set [1], the yeast surface expression was 0.686.

For chain 1 M105S G109H, the Kd with fluorescein was at least 10 µM. Also, in data set [1], the yeast surface expression is 0.261.

Consider chain 1 S30L Y32H, for which, in the data set with fluorescein, the Kd stood at 2.23 µM. The yeast surface expression in data set [1] is 0.8.

In the case of chain 1 D31Y W33R, the Kd with fluorescein was at least 10 µM. Also, the yeast surface expression in data set [1] came to 0.325.

On to chain 1 T28S F29A, for which the Kd with fluorescein came to 0.0624 µM. The yeast surface expression in data set [1] amounted to 0.957.

As for chain 1 T28S F29Q, the Kd with fluorescein was found to be 0.00638 µM. Further, in data set [1], the yeast surface expression was 0.969.

For chain 1 W36G V37Q, the Kd with fluorescein was at least 10 µM. For the same variant, the yeast surface expression in data set [1] worked out at 1.13.

Consider chain 1 D31M W36A, for which the Kd with fluorescein was at least 10 µM. In data set [1], the yeast surface expression was 1.72.

Take chain 1 S101G G104Y: the Kd with fluorescein is at least 10 µM. In data set [1], the yeast surface expression amounted to 0.901.

With chain 1 D106W, the Kd in the data set with fluorescein is at least 10 µM. In data set [1], the yeast surface expression was determined as 0.339.

Consider chain 1 S101I Y103P M105E, for which the Kd in the data set with fluorescein is at least 10 µM. Further, the yeast surface expression in data set [1] amounted to 0.462.

With chain 1 M105E D106C, the Kd with fluorescein was at least 10 µM. For the same variant, the yeast surface expression in data set [1] amounted to 0.779.

chain 1 Y32M W36M: in the data set with fluorescein, the equilibrium dissociation constant (Kd) was at least 10 µM. In addition, in data set [1], the yeast surface expression came to 0.672.

On to chain 1 G100P G104I, for which the Kd in the data set with fluorescein is at least 10 µM. Also, the yeast surface expression in data set [1] is 0.337.

As for chain 1 Y102D M105I, the Kd in the data set with fluorescein is at least 10 µM. In addition, in data set [1], the yeast surface expression was found to be 1.08.

Consider chain 1 S30I Y32T, for which the Kd in the data set with fluorescein is at least 10 µM. In addition, the yeast surface expression in data set [1] came to 0.909.

For chain 1 Y102D W108M, the Kd with fluorescein amounted to 0.000604 µM. The yeast surface expression in data set [1] was 0.926.

On to chain 1 D31C M34P, for which, in the data set with fluorescein, the Kd is at least 10 µM. Moreover, the yeast surface expression in data set [1] is 0.56.

As for chain 1 Y32E M34I, in the data set with fluorescein, the Kd is at least 10 µM. The yeast surface expression in data set [1] is 0.733.

Turning to chain 1 T28L M34D, in the data set with fluorescein, the Kd is at least 10 µM. In addition, the yeast surface expression in data set [1] amounted to 0.101.

With chain 1 T28Y S30L, in the data set with fluorescein, the Kd was 0.00708 µM. In addition, the yeast surface expression in data set [1] is 0.792.

For chain 1 G100Y Y107Q, the Kd with fluorescein was at least 10 µM. Moreover, in data set [1], the yeast surface expression was 0.595.

With chain 1 G100Y Y107W, the Kd with fluorescein is at least 10 µM. Besides, the yeast surface expression in data set [1] turned out to be 0.468.

As for chain 1 G100Y Y107T, in the data set with fluorescein, the Kd is at least 10 µM. Also, the yeast surface expression in data set [1] turned out to be 0.388.

As for chain 1 T28R S30L D31S, the Kd with fluorescein is at least 10 µM. Further, the yeast surface expression in data set [1] was determined as 0.198.

Turning to chain 1 D106W G109D, the Kd with fluorescein was at least 10 µM. Also, in data set [1], the yeast surface expression was determined as 0.186.

For chain 1 G104Y G109R, the Kd with fluorescein was found to be 0.021 µM. Besides, the yeast surface expression in data set [1] turned out to be 1.08.

Turning to chain 1 Y103M Y107W, in the data set with fluorescein, the Kd was determined as 0.00204 µM. The yeast surface expression in data set [1] was determined as 0.871.

chain 1 Y32C M34K: the Kd in the data set with fluorescein is at least 10 µM. For the same variant, the yeast surface expression in data set [1] was determined as 1.04.

Regarding chain 1 M105V W108D, the Kd in the data set with fluorescein was at least 10 µM. For the same variant, the yeast surface expression in data set [1] came to 0.437.

For the variant chain 1 M105V W108C, the Kd with fluorescein is 6.61 µM. Further, the yeast surface expression in data set [1] came out at 0.461.

For the variant chain 1 M105V W108H, the Kd in the data set with fluorescein is at least 10 µM. Besides, the yeast surface expression in data set [1] is 0.493.

Take chain 1 D31F Y32V N35C: the Kd with fluorescein is at least 10 µM. Moreover, in data set [1], the yeast surface expression stood at 0.0993.

On to chain 1 T28E Y32V, for which the dissociation constant (Kd) with fluorescein was at least 10 µM. For the same variant, the yeast surface expression in data set [1] amounted to 1.14.

In the case of chain 1 S30G W33V, in the data set with fluorescein, the Kd was at least 10 µM. For the same variant, in data set [1], the yeast surface expression came out at 1.

Regarding chain 1 S30C W33L, the Kd with fluorescein is at least 10 µM. For the same variant, the yeast surface expression in data set [1] was found to be 0.696.

For the variant chain 1 Y32S N35G V37K, the Kd with fluorescein is at least 10 µM. Further, the yeast surface expression in data set [1] was found to be 0.649.

In the case of chain 1 F29W S30V N35H, in the data set with fluorescein, the Kd was at least 10 µM. Moreover, in data set [1], the yeast surface expression was determined as 0.547.

For chain 1 M105Q G109W, the Kd with fluorescein is at least 10 µM. The yeast surface expression in data set [1] came out at 0.115.

Regarding chain 1 F29I S30E, the Kd in the data set with fluorescein was found to be 0.00343 µM. For the same variant, the yeast surface expression in data set [1] was found to be 0.929.

In the case of chain 1 Y107V W108R, the Kd in the data set with fluorescein is at least 10 µM. For the same variant, the yeast surface expression in data set [1] turned out to be 0.492.

In the case of chain 1 F29P V37K, in the data set with fluorescein, the Kd stood at 2.01 µM. The yeast surface expression in data set [1] came to 0.288.

As to chain 1 D31R Y32D, the Kd in the data set with fluorescein was at least 10 µM. The yeast surface expression in data set [1] was found to be 0.643.

Regarding chain 1 M34N N35H, the Kd with fluorescein turned out to be 0.0154 µM. Besides, the yeast surface expression in data set [1] is 1.84.

As for chain 1 S30C W36E, the Kd with fluorescein was at least 10 µM. The yeast surface expression in data set [1] was determined as 0.214.

On to chain 1 Y102H Y103E, for which the Kd with fluorescein stood at 0.195 µM. Besides, in data set [1], the yeast surface expression came to 1.17.

Take chain 1 F29S V37C: the Kd in the data set with fluorescein came to 0.00638 µM. Further, in data set [1], the yeast surface expression was 0.758.
